Target: huCdc7 fused to DNA-binding domain of Gal4 (human)
Assay: yeast two-hybrid assay, lacZ activity

H37 deletion derivative ΔP2 fused to Gal4 activation domain (from UniProt Q9UBU7 1-431)
interaction relative to the full-length clone: 10%
